Reference: the supplement of paper PMC10567573
± gives the standard deviation.

Assay: protein stability index of a GFP-peptide fusion (GPS, HEK-293T) (PSI 1-6); higher = more stable
Settings: c terminus: a fixed tail appended
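Also: 24-mer peptide tiles fused after GFP, lentivirally expressed, FACS-sorted into six equal bins by GFP/DsRed ratio, decoded by Illumina sequencing, PSI is the read-weighted mean bin number.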

Row | Sequence | protein stability index (treatment: DMSO) | protein stability index (treatment: MLN4924 1 uM, 8 h)
1 | ISVQNYKQVCKIAALHGLEETKKL [KLHL14] | 2.29 ± 0.24 | 2.31 ± 0.3
2 | MYHYLQFAYYKLNDVRQAARSAAS [P3H4] | 2.05 ± 0.42 | 2.33 ± 0.37
3 | SDSVHIEDAEAVEQLREALHEALL [ESRRA] | 3.09 ± 0.42 | 3.29 ± 0.34
4 | ALDSADLPPPSALKKGSKEKQADF [NFE2L1] | 5.33 ± 0.2 | 5.39 ± 0.21
5 | VDDAYVRRMAAEATEWQKAGAPPP [SRPK2] | 4.52 ± 0.26 | 4.63 ± 0.16
6 | FTMFLNLFGEKLSGTDAEETILNA [MYL5] | 2.12 ± 0.37 | 2.21 ± 0.2
7 | TLSISDVRTLSEPPDKGEEQVNFC [ZBTB22] | 4.94 ± 0.21 | 5.09 ± 0.22
8 | AGIELIIEDDIRPEKQKRKPGLRR [MYBL2] | 3.63 ± 0.24 | 4.26 ± 0.43
9 | AFHINKGLVKKYMNSLLIGELSPE [FADS1] | 2.45 ± 0.47 | 2.32 ± 0.26
10 | MLQIVVGVRDSGSPPLHANTSLHV [PCDHGC5] | 2.6 ± 0.47 | 2.91 ± 0.72
11 | DSTLSYTETEATNSLITAPGEFSD [SMAD6] | 5.34 ± 0.2 | 5.39 ± 0.17
12 | LQLFSSTLVGCWSDVVGRRSSLLA [MFSD9] | 2.59 ± 0.65 | 2.38 ± 0.47
13 | QRGHYRVARILIDLCSDVNVCSLL [RIPK4] | 2.9 ± 0.7 | 2.69 ± 0.28
14 | HARNGLSLKEEHRAYDLLRAASEN [IKZF1] | 3.73 ± 0.28 | 4.03 ± 0.35
15 | RYFSAWAEDDHMLIQNEYRNGGSL [WEE1] | 2.67 ± 0.5 | 2.32 ± 0.4
16 | FAEKGELRKSIFSESRKPTVSIME [TRIM29] | 2.37 ± 0.6 | 3.09 ± 0.59
17 | HLNGHAMCQTKHSPWADGTPCGPA [ADAMTS4] | 3.12 ± 0.35 | 3.11 ± 0.22
18 | ENEKDRADQTVLTEDEKKELENLA [CHGB] | 5.54 ± 0.19 | 5.75 ± 0.18
19 | RFLLYTNENPNNFQILLLSDPSTI [PNLIPRP1] | 2.94 ± 1 | 2.57 ± 0.61
20 | LPTLSHIQEAQSAWKDDFALNSML [YJU2B] | 3.13 ± 0.3 | 3.04 ± 0.23
21 | WYFWGETFQNSVFVATFLRYAVVL [SCD] | 3.37 ± 0.33 | 3.36 ± 0.85
22 | LGAMMLLESPIDPQPLSFKEPPLL [APMAP] | 2.41 ± 0.11 | 2.5 ± 0.45

Row | Sequence | protein stability index (treatment: DMSO) | protein stability index (treatment: MLN4924 1 uM, 8 h)
23 | LHLGLPWRMLRPQLVNSSADNMLE [PPEF2] | 2.87 ± 0.31 | 2.67 ± 0.48
24 | THICRSHNSINQSLDESVIYGPGN [SLC2A12] | 3.62 ± 0.18 | 3.74 ± 0.2
25 | GPGYWMCCHRSQKGFPGCKLGLHD [FBXO34] | 2.21 ± 0.44 | 2.11 ± 0.56
26 | QILYESCPKYKFISCPTCRRETVL [RNF208] | 2.15 ± 0.32 | 2.23 ± 0.28
27 | FIQKRCNSLLEEETILHFFVQILL [NEK8] | 2.41 ± 0.36 | 2.28 ± 0.47
28 | MGGAVSAGEDNDDLIDNLKEAQYI [PCMTD1] | 4.82 ± 0.086 | 4.64 ± 0.17
29 | KCILKTPGKINCLRNCKTYQARKP [RHOBTB3] | 2.98 ± 0.17 | 3.03 ± 0.26
30 | VSGDTSKLMKILQPQDVDLALDSG [RIPK4] | 4.57 ± 0.16 | 4.68 ± 0.32
31 | VAGMPTAYDLSSVIASGSSVGHNN [CARM1] | 3.86 ± 0.19 | 3.86 ± 0.23
32 | QRCQKCSWSQYEMPEFSSDSTMRI [RTP4] | 2.36 ± 0.18 | 2.42 ± 0.16
33 | REDILSCYDVYSPDKEEQLPFGPF [PKD2L1] | 4.09 ± 0.17 | 3.93 ± 0.23
34 | LAVGTDLYGQRNSAPEQELLVQDA [GFOD1] | 4.66 ± 0.22 | 4.69 ± 0.36
35 | GTIHALIFAWNKWIDIKQFVWYTP [STEAP1] | 3.28 ± 0.26 | 2.18 ± 0.11
36 | GDVLLDETLKHIKATEPTETVQTW [GOLPH3L] | 4.41 ± 0.27 | 4.45 ± 0.26
37 | TLVQREEPLRILSKYHRFISFTLY [CDS2] | 2.95 ± 0.8 | 2.8 ± 0.86
38 | RNQKGEQVFRLAFRSGALDLDSCS [MYORG] | 2.42 ± 0.33 | 2.48 ± 0.4
39 | IKLLQSSGADFHKKDKCGRTPLHY [ANKRD44] | 2.42 ± 0.2 | 2.6 ± 0.38
40 | FRNPMMSKLRNYRKDLAKLHREVR [VTI1B] | 2.37 ± 0.36 | 2.46 ± 0.24
41 | YLSLLRMYLSPPSIHCLGPIKLEL [VPS39] | 3.26 ± 0.43 | 2.94 ± 0.16
42 | YTVLGDTLIDGGEHYWEVRYEPDS [FSD1] | 3.02 ± 0.2 | 2.97 ± 0.34
43 | SNLHRHQRTHTGEKPYKCPECGEI [ZNF263] | 4.22 ± 0.41 | 4.53 ± 0.22
44 | AEKSVAPSNTGSRTTSVRCRGIPR [NEK8] | 4.63 ± 0.16 | 4.7 ± 0.26
